Numbered stars: 1 amine (or outer) side, 2 acyl side, 3 side chain; on linkers, the order of the positions; unused ones are H or OH. Square brackets hold non-standard residues; d marks the D form. Ends that are not written are not given here. ACHC(1S,2R) = O=C([C@H]1CCCC[C@H]1N[*:1])[*:2]
Molecular target: T1, vascular endothelial (VE) cadherin (human, UniProt P33151 48-784)
T1 sequence (looked up): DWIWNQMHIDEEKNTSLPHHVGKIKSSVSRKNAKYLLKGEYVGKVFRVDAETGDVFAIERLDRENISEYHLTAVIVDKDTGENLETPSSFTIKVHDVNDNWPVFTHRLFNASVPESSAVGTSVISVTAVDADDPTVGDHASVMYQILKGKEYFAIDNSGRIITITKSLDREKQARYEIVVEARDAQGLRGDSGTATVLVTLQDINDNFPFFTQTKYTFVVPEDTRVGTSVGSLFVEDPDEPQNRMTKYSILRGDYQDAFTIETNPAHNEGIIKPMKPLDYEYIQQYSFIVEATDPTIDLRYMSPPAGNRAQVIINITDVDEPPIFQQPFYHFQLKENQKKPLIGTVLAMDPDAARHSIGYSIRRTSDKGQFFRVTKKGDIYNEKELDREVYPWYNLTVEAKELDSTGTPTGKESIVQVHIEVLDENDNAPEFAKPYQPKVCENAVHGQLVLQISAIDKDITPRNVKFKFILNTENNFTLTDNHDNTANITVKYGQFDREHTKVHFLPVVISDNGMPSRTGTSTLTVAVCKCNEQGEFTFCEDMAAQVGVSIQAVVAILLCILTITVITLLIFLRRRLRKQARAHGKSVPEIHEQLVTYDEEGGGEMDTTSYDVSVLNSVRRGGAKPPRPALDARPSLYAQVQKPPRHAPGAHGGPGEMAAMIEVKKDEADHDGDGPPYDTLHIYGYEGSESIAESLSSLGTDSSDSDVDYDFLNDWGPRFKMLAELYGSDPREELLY
Assay: cell-based or functional assay

GHRP[ACHC(1S,2R)]ISGG [Gly-His-Arg-Pro-(1S, 2R)Achc-Ile-Ser-Gly-Gly]
Relative RhoA stimulation compared to unstimulated control: 2.2 relative to unstimulated control

Source: patent US20100081787A1 (FIBREX MEDICAL RESEARCH AND DEVELOPMENT, published 2010)
